For the assay, the target named is human polyomavirus (JC virus) T-antigen (JC virus (human polyomavirus)). Description: competition on T-antigen positive cells, 1 hour: 100-fold excess of unconjugated pAb416 against the ^125I 8 Ab/CLIO conjugate.

With “pAb416, a monoclonal antibody against T-antigen (IgG, not coupled to CLIO)”, the percent decrease of binding and internalization of ^125I-Ab-CLIO is more than 80%.
